In publication PMC4207663 one finds stoichiometry N data, which are given here for one substance.

For assay [1], the target named is Rco_(LS20)-His(6) (Bacillus subtilis (plasmid pLS20cat)). The experiment in a line: AUC; sedimentation equilibrium; 10 to 30 uM Rco_(LS20); same buffer as sedimentation velocity; 7,000 to 10,000 rpm; 280 nm; single species model (HeteroAnalysis).
For assay [2] the target is unchanged. The experiment in a line: AUC; sedimentation velocity; 10 uM purified Rco_(LS20); 20 mM Tris-HCl, 250 mM NaCl, 10 mM MgCl2, 1 mM EDTA, 100 mM glycerol, pH 7.4; 43-48 krpm; 280 nm; c(s) analysis with SEDFIT.

Usually stoichiometry N stands for the number of molecules, sites or subunits per partner or assembly. Turning to Rco_(LS20)-His(6) (natural protein), the stoichiometry N in assay [1] and in assay [2] was 4 throughout.
